In patent US20200199214A1 (Hoffmann-La Roche, published 2020):

Tests used:
[1] = molecular target: T1, human IL-1 beta (PeproTech 200-01B) (human, UniProt P01584 117-269); assay: SPR, Fab captured via anti-Fab antibody, human IL-1beta injected, 1:1 Langmuir fit
T1 construct: As printed it covers only the N-terminal part of the precursor, so it was not used; also called huIL-1 beta; IL1β
Description: An anti-Fab capturing antibody (GE Healthcare 28958325) was immobilized to a Series S Sensor Chip C1 (GE Healthcare 29104990) using standard amine coupling chemistry resulting in a surface density of approximately 500 resonance units (RU). The bispecific anti-VEGF/anti-IL-1beta Fab fragment was captured to the surface with resulting capture levels of approximately 20 RU. A dilution series ranging from 0.74 to 60 nM (1:3 dilution) of either human IL-1 beta (PeproTech 200-01B) or cynomolgus IL-1 beta (Sino Biological 90010-CNAE) was injected for 90 s, dissociation was monitored for at least 600 s at a flow rate of 30 μl/min. The surface was regenerated by two consecutive injections of 10 mM Glycine pH 2.1 for 60 s each. Bulk refractive index differences were corrected by subtracting blank injections and by subtracting the response obtained from the control flow cell without captured bispecific anti-VEGF/anti-IL-1beta Fab fragment. Curve fitting was performed using the 1:1 Langmuir binding model within the Biacore evaluation software.
(§1) Binding kinetics to VEGF and IL-1beta for the candidate antibodies were assessed as described in Example 3 using the indicated bispecific anti-VEGF/anti-IL-1beta Fab fragments (amino acid sequence as illustrated in Table 3). For comparison, antigen binding kinetics of prior art anti-VEGF/anti-IL-1beta antibody 0032, a full length IgG antibody, as disclosed in WO2016/075034 are depicted.

Human VEGF121-His = molecular target: T2, Human VEGF121-His (human, UniProt P15692-9 27-147); assay: SPR, VEGF121-His captured via anti-His antibody, Fab injected, single cycle kinetics, 1:1 Langmuir fit
T2 construct: not shown: His tag
T2 sequence (looked up): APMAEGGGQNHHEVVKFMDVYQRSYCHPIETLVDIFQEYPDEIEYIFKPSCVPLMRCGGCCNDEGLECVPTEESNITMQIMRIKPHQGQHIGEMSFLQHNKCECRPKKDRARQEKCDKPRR
Description: An anti-His capturing antibody (GE Healthcare 28995056) was immobilized to a Series S Sensor Chip C1 (GE Healthcare 29104990) using standard amine coupling chemistry resulting in a surface density of approximately 500 resonance units (RU). As running and dilution buffer, HBS-P+(10 mM HEPES, 150 mM NaCl pH 7.4, 0.05% Surfactant P20) was used. Human VEGF121-His was captured to the surface with resulting ligand densities of approximately 10 and 20 RU, respectively. A dilution series of the bispecific anti-VEGF/anti-IL-1beta Fab fragment (1.2-100 nM, 1:3 dilution) was successively injected for 90 s each, dissociation was monitored for 3600 s at a flow rate of 30 μl/min (single cycle kinetics). The surface was regenerated by injecting 10 mM Glycine pH 1.5 for 60 s. Bulk refractive index differences were corrected by subtracting blank injections and by subtracting the response obtained from the control flow cell without captured human VEGF121. Curve fitting was performed using the 1:1 Langmuir binding model within the Biacore evaluation software. To provide more robust fitting, the Multiple Rmax option was chosen for global fitting using both ligand densities.
as §1

human VEGF121 = molecular target: T3, human VEGF121 (human, UniProt P15692-9 27-147); assay: SPR competition: Fab (from 200 nM, 1:2 dilutions) preincubated with 50 nM VEGF121, injected over immobilised hVEGFR2 (competitor); without IL-1beta
T3 construct: No tag is stated for these preparations; Kept apart from VEGF121-His; also called HuVEGF121
T3 sequence (looked up): T2 sequence (looked up)
Description: As running and dilution buffer, HBS-P+(10 mM HEPES, 150 mM NaCl pH 7.4, 0.05% Surfactant P20) was used.
For assessing VEGF-receptor binding inhibition, a final concentration of 200 nM of R07200394 or 400 nM antibody 0032 was preincubated with 50 nM VEGF121. For assessing IL-1beta-receptor binding inhibition, a final concentration of 200 nM of R07200394 or 200 nM antibody 0032 was with preincubated with 50 nM IL-1beta. Samples were diluted (1:2) in the corresponding 50 nM VEGF121 or IL-1beta solution.
The antibody/ligand mixtures were injected onto the VEGFR2 or IL-1R1 surface for 60 s at a flow rate of 5 μl/min. After a dissociation phase for 60 s, the VEGFR2 surface was regenerated by injecting 5 mM NaOH for 60 s, whereas the IL-1R1 surface was regenerated by injecting 10 mM Glycine pH 3.0 followed by 5 mM NaOH for 60 s each. Bulk refractive index differences were corrected by subtracting blank injections and by subtracting the response obtained from the blank control flow cell. For evaluation, the binding response 5 seconds after inject end was taken. The derived response in RU was transformed to a binding response relative to the initial signal corresponding to the ligand(s) without antibody. IC50 values were calculated using a 4 parameter logistic model (XLfit, ID Business Solutions Ltd.)

Kd [1]: 21 pM
koff [1]: 0.000102 s⁻¹
kon [1]: 4.73e+06 M⁻¹ s⁻¹
t 1/2 [1]: 1.9 h
Kd (Human VEGF121-His): 6 pM
koff (Human VEGF121-His): 1.63e-05 s⁻¹
kon (Human VEGF121-His): 2.85e+06 M⁻¹ s⁻¹
t½ (Human VEGF121-His): 11.8 h
IC50 (human VEGF121): 44000 pM
B1: bispecific anti-VEGF/anti-IL-1beta Fab fragment RO7200394 (Fab, V domains shown)
VH: DEQLVESGGGLVKPGGSLRLSCAAEGMVFKWNDMSWVRQAPGKGLEWVGSISKKGDHKYLNTKFIGRFTISRDNEKDTLYLQMNSLRAEDTAVYYCAKDVGFFDIWGQGTLVTVSS
VL: AIYMHQEPSSLSASVGDRVTITCHGSYWLSSLVAWYQQKPGKAPKLLIYDAKYKHLGVPSRFSGSKEDQEFTLTISSLQPEDFATYYCQQYRYHPYTFGHGTKVEIKR
notes: same variable domains as 1HVL12.85; also called R07200394
